Laboratory results published in patent US20250346646A1, “COMPOUNDS USEFUL TO TREAT METABOLIC DISORDERS” (President and Fellows of Harvard College, priority 2016, published 2025).

B1: aP2: adipocyte lipid binding protein (aP2), also known as fatty-acid binding protein 4 (FABP4), recombinant (protein)
chain: MCDAFVGTWKLVSSENFDDYMKEVGVGFATRKVAGMAKPNMIISVNGDLVTIRSESTFKNTEISFKLGVEFDEITADDRKVKSIITLDGGALVQVQKWDGKSTTIKRKRDGDKLVVECVMKGVTSTRVYERA
B2: anti-aP2 mAb: anti-aP2 monoclonal antibody of Example 4, identity not stated (probably CA33) (antibody, V domains shown)
VH: QSVEESGGRLVTPGTPLTLTCTVSGFSLSTYYMSWVRQAPGKGLEWIGIIYPSGSTYCASWAKGRFTISKASTTVDLKITSPTTEDTATYFCARPDNDGTSGYLSGFGLWGQGTLVTVSS
VL: DVVMTQTPASVSEPVGGTVTIKCQASEDISRYLVWYQQKPGQPPKRLIYKASTLASGVPSRFKGSGSGTDFTLTISDLECDDAATYYCQCTYGTYAGSFFYSFGGGTEVVVE

Legend:
[1] = molecular target: human glucagon receptor (Homo sapiens, UniProt P47871); test: cAMP-response element luciferase reporter in CHO-K1 cells expressing human GCGR-GFP; assay type: cell-based; details: CHO-K1 human GCGR cAMP reporter
Procedure: Bar graphs represent mean±standard deviation (s.d.), n=4-5 per group. *P<0.05, **P<0.01, ***P≤0.001, ****P≤0.0001, ns P>0.05. Multiple group comparisons were done using one-way ANOVA statistics with Tukey post-test correction. Graphs show data as mean±standard error of mean (s.e.m.), analyzed using two-way ANOVA.
During cloning hexahistadine and WELQ protease site was added for protein purification. Murine aP2 gene was cloned into pet21+ vector after the hexahistadine tag and TEV protease site for ease of purification.
Plasmids were transfected using Lipofectamine (Invitrogen) according to manufacturer's instructions. Transiently transfected cells were grown in appropriate selection antibiotics where applicable for stable cell line generation. Following three passages under selection media, single cell colonies were picked and expanded for experimentation after validation.

[2] = molecular target: T1, GCGR-ecd (Homo sapiens, UniProt P47871); test: Biolayer interferometry: GCGR-ecd binding to biotin-glucagon with or without aP2; details: BLITZ biolayer interferometry
T1 construct: GCGR extracellular domain was cloned into pFastBac shuttle vector; hexahistidine; WELQ protease site; made in house; host or cells: baculovirus expression system (pFastBac)

[3] = molecular target: biotin-glucagon (Homo sapiens, UniProt P01275); test: Bio-Layer Interferometry: aP2 binding to biotin-glucagon; details: read-out: Kdapp aP2 / biotinylated glucagon; biolayer interferometry, 25° C., PBS
[4] = molecular target: glucagon (Homo sapiens, UniProt P01275); test: Microscale thermophoresis, binding to glucagon; details: read-out: Kd, binding to glucagon; MST
[5] = test system: aP2 knockout mice; test: Glucagon response of aP2 knockout mice given aP2, with or without CA33 preincubation; assay type: in vivo, mouse; details: CA33 preincubated with aP2
Description: Mouse and rabbit-mouse hybrid monoclonal antibodies raised against the human and mouse aP2 peptides were produced and screened. […] The systemic improvement in glucose metabolism was further verified using a glucose tolerance test (GTT).

[6] = test system: G6Pc and Pck1 expression in primary hepatocytes; test: Gluconeogenic gene expression (G6Pc, Pck1) in primary hepatocytes; assay type: cell-based, mouse; details: glucagon 100 nM plus recombinant aP2, vs glucagon alone
[7] = test system: primary hepatocytes; test: De-novo glucose production in primary hepatocytes; assay type: cell-based, mouse; details: 4 hours stimulation, aP2 with glucagon
Description: (§1) Bar graphs represent mean±standard deviation (s.d.), n=4-5 per group. *P≤0.05, **P≤0.01, ***P≤0.001, ****P≤0.0001, ns P>0.05. Multiple group comparisons were done using one-way ANOVA statistics with Tukey post-test correction.

[8] = test system: HepG2-C3A human hepatoma cell line; test: Glycogenolysis (14C-glucose release) in HepG2-C3A cells; assay type: cell-based; details: 24 hours stimulation, aP2 with glucagon
Description: as §1

[9] = test system: aP2 deficient mice; test: Hyper-insulinemic-pancreatic clamp in aP2 deficient mice; assay type: in vivo, mouse; details: insulin 3 mU/kg/min, vs vehicle
Description: Multiple group comparisons under clamp conditions were done using one-way ANOVA statistics with Tukey post-test correction. Basal and clamp conditions between groups were compared using repeated measures two-way ANOVA with Sidak correction. Graphs show data as mean s.e.m.

[10] = test system: aP2 deficient mice; test: Glucagon injection test (glycaemia) in aP2 deficient mice; details: 4-hour food withdrawal
Description: Graphs show data as mean s.e.m. Experiments were repeated at least three times with similar results.
One-way ordinary ANOVA, with Tukey correction was used for multiple group comparisons. Experiments were repeated at least three times with similar results.

[11] = test system: mice with diet induced obesity; test: Glucagon challenge test in mice with diet induced obesity; assay type: in vivo, mouse; details: HFD 20 weeks; 33 mg/kg i.p. twice a week for 3 weeks; 150 μg/kg glucagon after 4-hour fast; vs vehicle
Procedure: Mice were fed high fat diet for 20 weeks prior to the experiment. Starting from the 20th week, mice were injected with vehicle or anti-aP2 mAb at a dose of 33 mg/kg injected i.p. twice a week for 3 weeks.

human glucagon receptor, sequence (P47871 26-477): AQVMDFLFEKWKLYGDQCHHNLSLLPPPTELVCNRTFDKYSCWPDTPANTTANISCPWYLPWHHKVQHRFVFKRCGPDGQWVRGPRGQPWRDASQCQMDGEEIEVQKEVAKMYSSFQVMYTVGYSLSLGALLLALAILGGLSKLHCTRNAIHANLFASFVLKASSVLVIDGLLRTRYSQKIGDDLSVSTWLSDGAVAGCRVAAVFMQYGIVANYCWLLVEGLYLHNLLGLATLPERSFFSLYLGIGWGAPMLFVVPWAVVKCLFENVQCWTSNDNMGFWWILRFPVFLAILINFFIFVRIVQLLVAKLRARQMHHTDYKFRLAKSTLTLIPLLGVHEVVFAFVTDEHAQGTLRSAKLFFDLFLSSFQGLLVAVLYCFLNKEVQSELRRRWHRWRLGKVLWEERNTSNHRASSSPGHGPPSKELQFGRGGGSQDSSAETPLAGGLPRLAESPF
glucagon, sequence (P01275 53-81 limits assumed): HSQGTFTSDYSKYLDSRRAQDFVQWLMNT
T1 sequence (P47871 26-136 limits assumed): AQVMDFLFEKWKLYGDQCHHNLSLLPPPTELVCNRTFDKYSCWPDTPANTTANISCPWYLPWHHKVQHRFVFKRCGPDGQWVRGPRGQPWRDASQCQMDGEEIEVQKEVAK

Molecule	Increase of glucagon potency by aP2 addition [1]	Change of dissociation constant of glucagon to GCGR-ecd on addition of aP2 [2]	Kd [3]	Kd [4]	Glucagon responsiveness of aP2 knockout mice [5]	Expression of gluconeogenic genes [6]	Hepatic glucose production [7]	Glycogenolysis [8]	Hepatic glucose production / counterregulatory response to insulin [9]	Glycaemia response (glucagon responsiveness) [10]	Response to glucagon injection (glucose levels) [11]
B1	more than one order of magnitude	an order of magnitude decrease	2340 nM	~214 nM	rescues glucagon unresponsiveness	further increased	increased	increased	not seen	little to no-response	
B2											significantly lower response
